{
  "source": "paper PMC11915502",
  "binders": {"B1": {"name": "Bio-PactX (actX promoter probe) (dsDNA)", "DNA 1": "AAGTAACTAGCGGTACTAGAGTCGACCTGCAGGCATATAAAATAAGCGCA", "DNA 2": "TGCGCTTATTTTATATGCCTGCAGGTCGACTCTAGTACCGCTAGTTACTT"}},
  "molecular_target": "His6-HppX3 (Escherichia coli 3R (chicken), …, UniProt A0A0F7IE22 1-151)",
  "experiment": "EMSA",
  "data": [
    {"binder": "B1", "values": [
      {"measurement": "binding result", "result": "binds"}
    ]}
  ]
}
